The values below come from paper doi:10.1101/2020.07.27.222380, “NBS1-CtIP–Mediated DNA End Resection Regulates cGAS Binding to Micronuclei”.

The series addresses cGAS (human, UniProt Q8N884 1-522). The series is described as follows: EMSA; 5-10 uM cGAS, 50 fmol DNA, 1 mM Mg2+; 10 mM Hepes-NaOH pH 7.5, 100 mM NaCl, 1 mM DTT, 1 mM MgCl2, 20 ug/mL BSA, 25-50 fmol DNA, 25 C 30 min; native PAGE 5% or 6% (Methods), 0.5x TBE. The note with it: protein: recombinant; tags: His (pET28a-His-hcGAS); label: 32P. A general note: In EMSA bound probe runs differently from free probe, usually more slowly.

Chain of cGAS (Q8N884 whole entry): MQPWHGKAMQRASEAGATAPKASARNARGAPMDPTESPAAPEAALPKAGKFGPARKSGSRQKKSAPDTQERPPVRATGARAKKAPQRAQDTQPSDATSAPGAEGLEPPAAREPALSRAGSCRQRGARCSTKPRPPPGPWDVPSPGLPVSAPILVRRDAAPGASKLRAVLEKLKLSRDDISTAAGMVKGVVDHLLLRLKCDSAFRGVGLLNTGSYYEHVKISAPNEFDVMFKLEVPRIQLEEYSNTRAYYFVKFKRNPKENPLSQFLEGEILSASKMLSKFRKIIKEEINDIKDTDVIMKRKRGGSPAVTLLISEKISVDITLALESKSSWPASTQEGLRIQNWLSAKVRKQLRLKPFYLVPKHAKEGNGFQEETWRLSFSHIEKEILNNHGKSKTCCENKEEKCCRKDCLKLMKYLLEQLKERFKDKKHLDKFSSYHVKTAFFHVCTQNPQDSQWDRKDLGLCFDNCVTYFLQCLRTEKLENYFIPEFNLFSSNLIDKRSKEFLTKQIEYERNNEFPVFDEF

B1: ISRE 45-bp dsDNA (dsDNA)
DNA 1: TACAGATCTACTAGTGATCTATGACTGATCTGTACATGATCTACACCAAAGAGCATTGTAGATCATGTACAGATCAGTCATAGATCACTAGTAGATCTGTA
DNA 2: TACAGATCTACTAGTGATCTATGACTGATCTGTACATGATCTACAATGCTCTTTGGTGTAGATCATGTACAGATCAGTCATAGATCACTAGTAGATCTGTA
On to B1, for which the binding result was “binds”.
